Measured values taken from publication PMC12311110 (Nature Communications, 2025).

What was measured:
[1] = tested on: GLUT1, LAT1, KIDINS220, ATP7A, CTR1 surface levels in HeLa cells; assay: Surface biotinylation and streptavidin purification: cell surface protein levels; assay type: cell-based, human; settings: Hela cells transduced with GFP-RAB10 T23N; PAR+GFP = 100; mean of n = 3
Method: For every kind of protein extraction, buffers were pre-chilled, and cells and samples placed on ice. For basic western blot (WB), cells were lysed in ~ pH 7.2 phosphate buffered saline (PBS) with 1% (v/v) Triton X-100 and protease inhibitors (Thermo Fisher, A32955). The protein concentration was determined with a bicinchoninic acid (BCA) assay kit (Thermo Fisher, 23225) and equal amounts were denaturised (LDS Sample buffer (Thermo Fisher, NP0008), 3% β-mercaptoethanol (Sigma-Aldrich, M6250), 10 min at 95 °C) and resolved by SDS-PAGE on NuPAGE 4–12% precast gels (Invitrogen, NP0336BOX). Protein samples were then transferred onto methanol-activated polyvinylidene fluoride (PVDF) membrane (Immobilon-FL membrane, pore size 0.45μm; Millipore, IPFL00010). The membrane was blocked, then sequentially labelled with primary and secondary antibodies. Fluorescence detected by scanning with a LI-COR Odyssey scanner and Image Studio analysis software (LI-COR Biosciences). Typically, we performed WB in where a single blot is simultaneously probed with antibodies against 2 proteins of interest (distinct antibody species), followed by visualisation with the corresponding secondary antibodies conjugated to distinct spectral dyes. All steps were carried out on ice to prevent surface protein internalisation. […] The protein concentration was determined by BCA. […]

[2] = target: T1, hRetromer (Homo sapiens, UniProt O75436+Q96QK1+Q9UBQ0); assay: Isothermal titration calorimetry (ITC) of binding to Retromer; settings: ITC, 25 °C, 530 µM TBC1D13 titrated into 14 µM Retromer, mean of triplicate titrations
T1 construct: GST (pGEX4T-2, thrombin site plus linker) (N, cleaved yes); made in house; host or cells: E. coli BL21 (DE3)
Method: All the bacteria constructs were expressed in BL21 (DE3) cells using the autoinduction method. In brief, cultures grown in complex medium were incubated at 37 °C for 4 h, followed by overnight growth at 20 °C before harvesting for purification. […] In all cases, the soluble fractions clarified by centrifugation were loaded onto pre-equilibrated glutathione sepharose (GE healthcare) for initial purification. For Retromer, an additional Talon® resin purification step was performed to ensure the correct stoichiometry. GST-tag removal was carried out co-column overnight by adding thrombin for Human Retromer and PreScission protease for TBC1D13. The GST-tag removed fraction was further purified by size-exclusion chromatography (SEC) using a Superdex 200 (16/600) column (GE Healthcare) equilibrated with buffer containing 50 mM Tris-HCl pH 7.5, 200 mM NaCl, 2 mM β-ME.
The effect of cyclic peptide was assessed by pre-mixing 140 µM RT-D1 into 14 µM Retromer before titrating with 1 mM of native DENND4C1189-1206 peptide. For the binding experiment between Retromer and TBC1D13, 530 µM of TBC1D13 was titrated into 14 µM Retromer. The effect of the cyclic peptide was tested using the same concentration of RT-D1 as described above. All ITC experiments consisted of an initial 0.4 μl (not used in data processing), followed by 12 serial injections of 3.22 μl each with 180 sec intervals. […]

B1: GFP-RAB10T23N (protein, UniProt P61026 1-200, looked up, variant T23N)
Ras-related protein Rab-10: MAKKTYDLLFKLLLIGDSGVGKNCVLFRFSDDAFNTTFISTIGIDFKIKTVELQGKKIKLQIWDTAGQERFHTITTSYYRGAMGIMLVYDITNGKSFENISKWLRNIDEHANEDVERMLLGNKCDMDDKRVVPKGKGEQIAREHGIRFFETSAKANINIEKAFLTLAEDILRKTPVKEPNSENVDISSGGGVTGWKSKCC
modifications: GFP fusion
CTR1 Surface (LAT1 normalized) [1]: 77.05

B2: hTBC1D13TBC: recombinant full-length human TBC1D13, RAB35 GAP, expressed in bacteria (protein)
chain: MSSLHKSRIADFQDVLKEPSIALEKLRELSFSGIPCEGGLRCLCWKILLNYLPLERASWTSILAKQRELYAQFLREMIIQPGIAKANMGVSREDVTFEDHPLNPNPDSRWNTYFKDNEVLLQIDKDVRRLCPDISFFQRATDYPCLLILDPQNEFETLRKRVEQTTLKSQTVARNRSGVTNMSSPHKNSVPSSLNEYEVLPNGCEAHWEVVERILFIYAKLNPGIAYVQGMNEIVGPLYYTFATDPNSEWKEHAEADTFFCFTNLMAEIRDNFIKSLDDSQCGITYKMEKVYSTLKDKDVELYLKLQEQNIKPQFFAFRWLTLLLSQEFLLPDVIRIWDSLFADDNRFDFLLLVCCAMLMLIREQLLEGDFTVNMRLLQDYPITDVCQILQKAKELQDSK
modifications: left off: GST, end not stated, cleaved
notes: recombinant full-length human TBC1D13, RAB35 GAP, expressed in bacteria
-TΔS [2]: 1.0 ± 1.4 kcal/mol
Kd ([2]; single-site binding model, read-out: Kd): 6.3 ± 1.2 µM
